In US20240279611A1, “EXOSOME PRODUCTION PROMOTING AGENT AND EXOSOME PRODUCTION PROMOTING METHOD” (FULLSTEM CO., LTD., priority 2021, published 2024):

Test system: adipose-derived mesenchymal stem cells (ADSC)
Assay: Amount of exosomes produced from ADSC, measured with Exo Counter (CD81 sandwich immunoassay) after excluding single factors
Type: cell-based
Conditions: 48-hour culture in DMEM F12 on nonwoven fabric; one factor excluded from the eight factors of Table 1, compared with all eight added; CD81 on exosome surface detected in culture supernatant; FIG. 1
Protocol: 4×10^4 adipose-derived mesenchymal stem cells (ADSC) were seeded in each well. A nonwoven fabric (3D, BioNOCII, CESCO BIOENGINEERING CO., LTD. in non-adhesive 24 well plate (PrimeSurface (registered trademark) Sumitomo Bakelite Co., Ltd.) was used for cell culture. A basal medium was 1.5 ml of 10% FBS/DMEM F12 (Sigma-Aldrich). The number of days of culture was 6. Starting from Day 2, 1.5 ml of medium was exchanged daily, and the amount of sugar consumed in the used culture medium was measured.
Next, in the cell culture for 48 hours on Day 7 and Day 8, DMEM F12 was used as a medium so as to collect exosomes. In this 48-hour culture, 10% ExoFBS (Funakoshi Co., Ltd.) was added in Test #1. ExoFBS is a product from which bovine-derived exosomes are removed; therefore, influence on an exosome research is reduced.
In Test #3 of the 48-hour culture, only factor A was excluded from the eight factors shown in Table 1, and the other factors were added. In Test #4 of the 48-hour culture, only factor B was excluded from the eight factors shown in Table 1, and the other factors were added. […]
The amount of exosomes produced from ADSC was measured with Exo Counter (Kenwood), using 50 μl each from 1.5 ml of the collected culture supernatant. […] CD81 on the exosome surface was detected to quantify the exosome amount.

B1: SCGF (protein, UniProt Q9Y240 22-323, looked up)
C-type lectin domain family …: ARGAEREWEGGWGGAQEEEREREALMLKHLQEALGLPAGRGDENPAGTVEGKEDWEMEEDQGEEEEEEATPTPSSGPSPSPTPEDIVTYILGRLAGLDAGLHQLHVRLHALDTRVVELTQGLRQLRNAAGDTRDAVQALQEAQGRAEREHGRLEGCLKGLRLGHKCFLLSRDFEAQAAAQARCTARGGSLAQPADRQQMEALTRYLRAALAPYNWPVWLGVHDRRAEGLYLFENGQRVSFFAWHRSPRPELGAQPSASPHPLSPDQPNGGTLENCVAQASDDGSWWDHDCQRRLYYVCEFPF
notes: 29-kDa protein having no N-type sugar chain, belongs to a C-type lectin family
effect of the factor on the amount of exosomes produced: inhibits the production of exosomes
